Experiments:
[1] = biological target: BG505 SOSIP.664 soluble HIV-1 Env trimer (HIV-1 (strain BG505)) (UniProt Q2N0S6); test: negative-stain single-particle EM
[2] = biological target: BG505 SOSIP.664 soluble HIV-1 Env trimer (HIV-1 (strain BG505)) (UniProt Q2N0S6); test: cryo-EM structure
[3] = biological target: BG505 SOSIP-sCD4 complex (HIV-1 (strain BG505) | human) (UniProt Q2N0S6); test: negative-stain single-particle EM
[4] = biological target: BG505 SOSIP-sCD4 complex (HIV-1 (strain BG505) | human) (UniProt Q2N0S6); test: cryo-EM structure

Substance | stoichiometry N (copies per trimer) [1] | stoichiometry N (sCD4 per trimer) [2] | stoichiometry N (copies per trimer) [3] | stoichiometry N (Fabs per trimer) [4]
sCD4 (CD4 domains 1 and 2) (domain or fragment) | 3 | 3 |  | 
17b Fab (CD4-induced antibody) |  |  | 3 | 3
